Data as given in patent publication US20260242478A1 (published 2026).

Tests used:
[1] = molecular target: T1, Anti-PSMA Fab; test: phage ELISA; biotinylated PSMA Fab on neutravidin plate, clonal phage supernatant, anti-M13 HRP detection;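 also: wells preincubated with PSMA antigen in blocking buffer or with blocking buffer only before clonal phage were added for a short incubation, then bound phage detected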
T1 construct: In the phage ELISA the PSMA Fab was biotinylated and captured on neutravidin coated plates; also called 006 PSMA Fab
Procedure: (§1) Clonal phage were harvested as crude supernatants and screened via standard ELISAs. […] Prior to the addition of clonal phage. wells were incubated with blocking buffer and PSMA antigen or blocking buffer alone. Without washing or aspirating, clonal phage supernatants were then added to the wells and incubated for a short time. Wells were then washed followed by detection of bound phage using a horse radish conjugated anti-M13 antibody.

[2] = molecular target: T2, PSMA Fab; test: clonal phage ELISA on captured PSMA Fab, wells pre-incubated with PSMA antigen as competitor
T2 construct: also called Anti-PSMA Fab; 006 PSMA Fab
Procedure: as §1

[3] = molecular target: T2, PSMA Fab; test: clonal phage ELISA on biotinylated PSMA Fab captured on neutravidin plates, anti-M13 HRP detection;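 also: crude clonal phage supernatants tested, before phage were added, wells were pretreated with PSMA antigen in blocking buffer or with blocking buffer only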
Procedure: as §1

[4] = molecular target: T3, PSMA Fab (006 PSMA Fab) (biotinylated (site not stated)); test: clonal phage ELISA on plate-captured biotinylated PSMA Fab, blocking buffer alone, anti-M13 HRP detection
T3 construct: also called Anti-PSMA Fab

[5] = molecular target: T3, PSMA Fab (006 PSMA Fab); test: clonal phage ELISA on plate-captured biotinylated PSMA Fab pre-incubated with PSMA antigen as competitor, anti-M13 HRP detection
Procedure: as §1

[6] = molecular target: T4, PSMA Fab (biotinylated (site not stated)); test: phage ELISA; biotinylated PSMA Fab on neutravidin plate, clonal phage supernatant, anti-M13 HRP detection;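 also: wells preincubated with PSMA antigen in blocking buffer or with blocking buffer only before clonal phage were added for a short incubation, then bound phage detected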
T4 construct: Biotinylated PSMA Fab captured on neutravidin coated plates in the phage ELISA; also called Anti-PSMA Fab; 006 PSMA Fab

[7] = molecular target: T4, PSMA Fab; test: phage ELISA; biotinylated PSMA Fab on neutravidin plate pre-incubated with PSMA antigen as competitor, anti-M13 HRP detection;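 also: crude clonal phage supernatants tested, compared against control wells pre-incubated with blocking buffer only, without PSMA antigen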
Procedure: as §1

PYTLCRPAWMCQAM [Phage-3868]
Phage binding ELISA signal, Anti-PSMA Fab [1]: 1.16

TAPMCNPPWMCYGL (tested as crude phage supernatant) [Phage-3878]
phage binding ELISA signal [2]: 0.0701
phage binding ELISA signal [3]: 1.13

LSWECVPQWMCTGL [Phage-3867]
Phage binding ELISA signal, Anti-PSMA Fab [1]: 1.16

AVIMCEPSWMCEGF (tested as crude phage supernatant) [Phage-3870]
phage binding ELISA signal [2]: 0.102
phage binding ELISA signal [3]: 1.16

SDHLCIPRWMCVGF [Phage-3857]
Phage binding ELISA signal, Anti-PSMA Fab [1]: 1.18

SDYMCRPSWMCEGL [Phage-3838]
Phage binding ELISA signal, Anti-PSMA Fab [4]: 1.23
Phage binding ELISA signal, Anti-PSMA Fab in presence of PSMA [5]: 0.0632

PSQMCVPTWMCVGF [Phage-3862]
Phage binding ELISA signal, Anti-PSMA Fab [1]: 1.17

GQGSCVPMWMCEGF [Phage-3866]
Phage binding ELISA signal, Anti-PSMA Fab [1]: 1.16

NAGYCVPTWMCDGF [Phage-3864]
Phage binding ELISA signal, Anti-PSMA Fab [1]: 1.17

EGILCKPSWMCNDF (tested as crude phage supernatant) [Phage-3871]
phage binding ELISA signal [2]: 0.0803
phage binding ELISA signal [3]: 1.15

TSVLCQPLWMCSGF [Phage-3832]
Phage binding ELISA signal, Anti-PSMA Fab [4]: 1.24
Phage binding ELISA signal, Anti-PSMA Fab in presence of PSMA [5]: 0.0785

GMKTCVPAWMCVGF [Phage-3831]
Phage binding ELISA signal, Anti-PSMA Fab [4]: 1.24
Phage binding ELISA signal, Anti-PSMA Fab in presence of PSMA [5]: 0.08

VTPACMPRWMCEGF (tested as crude phage supernatant) [Phage-3879]
phage binding ELISA signal [2]: 0.0611
phage binding ELISA signal [3]: 1.13

VSKMCSPVWMCEGF [Phage-3854]
Phage binding ELISA signal, Anti-PSMA Fab [6]: 1.19
Phage binding ELISA signal, Anti-PSMA Fab in presence of PSMA [7]: 0.0928

VVHLCTPNWMCNGF [Phage-3853]
Phage binding ELISA signal, Anti-PSMA Fab [6]: 1.19
Phage binding ELISA signal, Anti-PSMA Fab in presence of PSMA [7]: 0.0576

MGVECKPLWMCTGL [Phage-3865]
Phage binding ELISA signal, Anti-PSMA Fab [1]: 1.16

SGLSCVPFWMCTGF [Phage-3845]
Phage binding ELISA signal, Anti-PSMA Fab [6]: 1.21
Phage binding ELISA signal, Anti-PSMA Fab in presence of PSMA [7]: 0.0662

SDMVCKPPWMCYGF [Phage-3844]
Phage binding ELISA signal, Anti-PSMA Fab [6]: 1.22
Phage binding ELISA signal, Anti-PSMA Fab in presence of PSMA [7]: 0.0897

IESICRPAWMCERL [Phage-3860]
Phage binding ELISA signal, Anti-PSMA Fab [1]: 1.17

ELRLCVPHWMCDGF [Phage-3847]
Phage binding ELISA signal, Anti-PSMA Fab [6]: 1.21
Phage binding ELISA signal, Anti-PSMA Fab in presence of PSMA [7]: 0.0777

NYVKCRPAWMCDGF [Phage-3855]
Phage binding ELISA signal, Anti-PSMA Fab [6]: 1.18
Phage binding ELISA signal, Anti-PSMA Fab in presence of PSMA [7]: 0.0759

EDALCVPQWMCSGF (tested as crude phage supernatant) [Phage-3877]
phage binding ELISA signal [2]: 0.0648
phage binding ELISA signal [3]: 1.14

PFLACIPQWMCEVV [Phage-3843]
Phage binding ELISA signal, Anti-PSMA Fab [6]: 1.22
Phage binding ELISA signal, Anti-PSMA Fab in presence of PSMA [7]: 0.247

LEIFCVPMWMCEGL [Phage-3869]
Phage binding ELISA signal, Anti-PSMA Fab [1]: 1.16

WQAWCEPPWMCLGF [Phage-3851]
Phage binding ELISA signal, Anti-PSMA Fab [6]: 1.2
Phage binding ELISA signal, Anti-PSMA Fab in presence of PSMA [7]: 0.0962

STMLCSPSWMCFGF (tested as crude phage supernatant) [Phage-3872]
phage binding ELISA signal [2]: 0.073
phage binding ELISA signal [3]: 1.15

EPKECVPPWMCIGM [Phage-3850]
Phage binding ELISA signal, Anti-PSMA Fab [6]: 1.21
Phage binding ELISA signal, Anti-PSMA Fab in presence of PSMA [7]: 0.079

YNQLCIPNWMCTGF [Phage-3846]
Phage binding ELISA signal, Anti-PSMA Fab [6]: 1.21
Phage binding ELISA signal, Anti-PSMA Fab in presence of PSMA [7]: 0.0729

VQIVCSPTWMCTGF [Phage-3861]
Phage binding ELISA signal, Anti-PSMA Fab [1]: 1.17

YDRLCSPPWMCSGF (tested as crude phage supernatant) [Phage-3874]
phage binding ELISA signal [2]: 0.0629
phage binding ELISA signal [3]: 1.15

WDIRCSPEWMCIGL [Phage-3849]
Phage binding ELISA signal, Anti-PSMA Fab [6]: 1.21
Phage binding ELISA signal, Anti-PSMA Fab in presence of PSMA [7]: 0.0603

NYNACVPIWMCEGF [Phage-3839]
Phage binding ELISA signal, Anti-PSMA Fab [4]: 1.22
Phage binding ELISA signal, Anti-PSMA Fab in presence of PSMA [5]: 0.104

EHARCTPAWMCAGF [Phage-3859]
Phage binding ELISA signal, Anti-PSMA Fab [1]: 1.17

QLGACIPWWMCNGF [Phage-3863]
Phage binding ELISA signal, Anti-PSMA Fab [1]: 1.17

PQIKCIPAWMCDGF (tested as crude phage supernatant) [Phage-3875]
phage binding ELISA signal [2]: 0.0851
phage binding ELISA signal [3]: 1.14

DPVWCIPQWMCEGF [Phage-3837]
Phage binding ELISA signal, Anti-PSMA Fab [4]: 1.23
Phage binding ELISA signal, Anti-PSMA Fab in presence of PSMA [5]: 0.0652

YELACVPRWMCYGL [Phage-3856]
Phage binding ELISA signal, Anti-PSMA Fab [1]: 1.18

VDRVCIPTWMCEGI [Phage-3834]
Phage binding ELISA signal, Anti-PSMA Fab [4]: 1.23
Phage binding ELISA signal, Anti-PSMA Fab in presence of PSMA [5]: 0.0575

SNVMCRPSWMCAGF (tested as crude phage supernatant) [Phage-3876]
phage binding ELISA signal [2]: 0.132
phage binding ELISA signal [3]: 1.14

LYEMCKPLWMCAGF [Phage-3842]
Phage binding ELISA signal, Anti-PSMA Fab [6]: 1.22
Phage binding ELISA signal, Anti-PSMA Fab in presence of PSMA [7]: 0.0737

LQQLCVPNWMCVGF (tested as crude phage supernatant) [Phage-3873]
phage binding ELISA signal [2]: 0.0902
phage binding ELISA signal [3]: 1.15

GSHYCVPQWMCGGF [Phage-3858]
Phage binding ELISA signal, Anti-PSMA Fab [1]: 1.17

IEKQCVPQWMCDGF (tested as crude phage supernatant) [Phage-3880]
phage binding ELISA signal [2]: 0.0745
phage binding ELISA signal [3]: 1.13

VPRLCMPPWMCVGF [Phage-3848]
Phage binding ELISA signal, Anti-PSMA Fab [6]: 1.21
Phage binding ELISA signal, Anti-PSMA Fab in presence of PSMA [7]: 0.0968

SEMRCSPPWMCYGF [Phage-3841]
Phage binding ELISA signal, Anti-PSMA Fab [4]: 1.22
Phage binding ELISA signal, Anti-PSMA Fab in presence of PSMA [5]: 0.0822

DQRMCEPSWMCLGL [Phage-3852]
Phage binding ELISA signal, Anti-PSMA Fab [6]: 1.19
Phage binding ELISA signal, Anti-PSMA Fab in presence of PSMA [7]: 0.0704

VLHKCLPTWMCNGF [Phage-3836]
Phage binding ELISA signal, Anti-PSMA Fab [4]: 1.23
Phage binding ELISA signal, Anti-PSMA Fab in presence of PSMA [5]: 0.0967

FWQRCVPTWMCEGF [Phage-3835]
Phage binding ELISA signal, Anti-PSMA Fab [4]: 1.23
Phage binding ELISA signal, Anti-PSMA Fab in presence of PSMA [5]: 0.148

VGIRCEPAWMCEGF [Phage-3833]
Phage binding ELISA signal, Anti-PSMA Fab [4]: 1.24
Phage binding ELISA signal, Anti-PSMA Fab in presence of PSMA [5]: 0.0645

PYSICKPDWMCTGL [Phage-3840]
Phage binding ELISA signal, Anti-PSMA Fab [4]: 1.22
Phage binding ELISA signal, Anti-PSMA Fab in presence of PSMA [5]: 0.0653
